# Experimental data as given in patent publication US20070224189A1 (published 2007).
# Molecular target: extracellular region of human V158 FcγRIIIa fused with glutathione S-Transferase (GST) (human, UniProt P08637 17-208)
# Assay: AlphaScreen competition
binder,measurement,value
WT alemtuzumab (antibody) chain 1: not shown chain 2: not shown,IC50,4.6 nM
